Test results reported in paper PMC8901805.

Target: FITC-BIM SAHBA2
Experiment: fluorescence polarisation; direct binding: FITC-BIM SAHBA2 (50 nM) with serial dilutions of full-length BAX, read at 20 min

**Q.** With “Human, recombinant and tagless BAX (from UniProt Q07812 1-192) (natural protein)” as the substance, how does the EC75 read?
**A.** Its EC75 is 500 nM.
